Numbering of substitutions follows the chain as printed. One block for each molecule: values may come before it.
What was measured:
[1] = biological target: T1, mLDHD (Mus musculus, UniProt Q7TNG8); experiment: X-ray crystal structure, […] Å; format: binding; details: non-covalently bound, co-purified from expression host
T1 construct: gene Ldhd
T1 sequence (Q7TNG8 22-484): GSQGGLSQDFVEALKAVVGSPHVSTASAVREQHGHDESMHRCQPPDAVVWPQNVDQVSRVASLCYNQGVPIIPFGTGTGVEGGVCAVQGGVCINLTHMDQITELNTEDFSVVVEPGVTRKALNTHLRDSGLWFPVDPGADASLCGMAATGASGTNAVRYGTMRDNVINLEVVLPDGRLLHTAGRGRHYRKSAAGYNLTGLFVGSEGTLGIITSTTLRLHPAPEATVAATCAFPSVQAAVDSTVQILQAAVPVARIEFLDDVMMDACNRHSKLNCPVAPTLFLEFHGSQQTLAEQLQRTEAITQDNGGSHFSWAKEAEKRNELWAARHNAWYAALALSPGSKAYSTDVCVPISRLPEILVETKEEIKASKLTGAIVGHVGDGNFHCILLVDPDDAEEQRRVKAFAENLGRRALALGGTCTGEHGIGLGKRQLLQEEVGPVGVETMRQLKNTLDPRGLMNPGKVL

[2] = biological target: T2, mLDHD (Mus musculus, UniProt Q7TNG8, H405A); experiment: X-ray crystal structure (soak); format: binding; details: FAD-bound crystals; no Mn2+ at active site; DL mixture soaked
T2 construct: gene Ldhd
T2 sequence (Q7TNG8 22-484 H405A): T1 sequence (Q7TNG8 22-484) with H384A

[3] = substrate: CCCCCCC(O)C(=O)O; experiment: purified protein; format: biochemical, Mus musculus; details: 50 mM Tris-HCl pH 7.4, 50 μM MnCl2, 200 μM PMS, 100 μM DCIP, 37 °C
[4] = substrate: CCCCC(O)C(=O)O; experiment: purified protein; format: biochemical, Mus musculus; details: 50 mM Tris-HCl pH 7.4, 50 μM MnCl2, 200 μM PMS, 100 μM DCIP, 37 °C
[5] = substrate: CC(C)[C@@H](O)C(=O)O; experiment: purified protein; format: biochemical, Mus musculus; details: 50 mM Tris-HCl pH 7.4, 50 μM MnCl2, 200 μM PMS, 100 μM DCIP, 37 °C
[6] = substrate: CC(C)CC(O)C(=O)O; experiment: purified protein; format: biochemical, Mus musculus; details: 50 mM Tris-HCl pH 7.4, 50 μM MnCl2, 200 μM PMS, 100 μM DCIP, 37 °C, racemate, KM calculated on D-isomer concentration
[7] = substrate: CC[C@@H](O)C(=O)O; experiment: purified protein; format: biochemical, Mus musculus; details: 50 mM Tris-HCl pH 7.4, 50 μM MnCl2, 200 μM PMS, 100 μM DCIP, 37 °C
[8] = substrate: CCCC(O)C(=O)O; experiment: purified protein; format: biochemical, Mus musculus; details: 50 mM Tris-HCl pH 7.4, 50 μM MnCl2, 200 μM PMS, 100 μM DCIP, 37 °C, racemate, KM calculated on D-isomer concentration
[9] = substrate: O=C(O)[C@H](O)Cc1ccccc1; experiment: purified protein; format: biochemical, Mus musculus; details: 50 mM Tris-HCl pH 7.4, 50 μM MnCl2, 200 μM PMS, 100 μM DCIP, 37 °C
[10] = substrate: CCC(C)C(O)C(=O)O; experiment: purified protein; format: biochemical, Mus musculus; details: 50 mM Tris-HCl pH 7.4, 50 μM MnCl2, 200 μM PMS, 100 μM DCIP, 37 °C
[11] = substrate: C[C@@H](O)C(=O)O; experiment: purified protein; details: 50 mM Tris-HCl pH 7.4, 50 μM MnCl2, 200 μM PMS, 100 μM DCIP, 37 °C

X-ray crystal structure, 1.70 Å [1]: mLDHD in complex with FAD (PDB 8JDC)
Molecule: Cc1cc2nc3c(=O)[nH]c(=O)nc-3n(C[C@H](O)[C@H](O)[C@H](O)COP(=O)(O)OP(=O)(O)OC[C@H]3O[C@@H](n4cnc5c(N)ncnc54)[C@H](O)[C@@H]3O)c2cc1C [FAD]

Molecule: CCCCCC[C@@H](O)C(=O)O (mixture of isomers) [D-2-HO, D-2-hydroxyoctanoate]
X-ray crystal structure (soak) [2]: mLDHDH405A in complex with FAD and D-2-hydroxyoctanoate (PDB 8JDB)

Molecule: CC(C)C[C@@H](O)C(=O)O (mixture of isomers) [D-2-HIC, D-2-hydroxyisocaproate]
X-ray crystal structure (soak) [2]: mLDHDH405A in complex with FAD and D-2-hydroxyisocaproate (PDB 8JDQ)

Molecule: CCC[C@@H](O)C(=O)O (mixture of isomers) [D-2-HV, D-2-hydroxyvalerate]
X-ray crystal structure (soak) [2]: mLDHDH405A in complex with FAD and D-2-hydroxyvalerate (PDB 8JDN)

B1: mLDHD (Mus musculus) (protein)
chain: T1 sequence (Q7TNG8 22-484)
Km [3]: 104.0 ± 9.0 µM | Vmax [3]: 0.409 µmol/min/mg | kcat [3]: 0.342 ± 0.00833 s⁻¹ | kcat/Km [3]: 3280 M⁻¹ s⁻¹ | Km [4]: 34.9 ± 1.6 µM | Vmax [4]: 1.48 µmol/min/mg | kcat [4]: 1.233 ± 0.0117 s⁻¹ | kcat/Km [4]: 35300 M⁻¹ s⁻¹ | Km [5]: 13.9 ± 1.2 µM | Vmax [5]: 1.11 µmol/min/mg | kcat [5]: 0.925 ± 0.015 s⁻¹ | kcat/Km [5]: 66500 M⁻¹ s⁻¹ | Km [6]: 16.4 ± 0.7 µM | Vmax [6]: 0.902 µmol/min/mg | kcat [6]: 0.752 ± 0.0133 s⁻¹ | kcat/Km [6]: 45800 M⁻¹ s⁻¹ | Km [7]: 62.9 ± 2.8 µM | Vmax [7]: 1.6 µmol/min/mg | kcat [7]: 1.33 ± 0.015 s⁻¹ | kcat/Km [7]: 21200 M⁻¹ s⁻¹ | Km [8]: 31.4 ± 2.7 µM | Vmax [8]: 1.12 µmol/min/mg | kcat [8]: 0.933 ± 0.0183 s⁻¹ | kcat/Km [8]: 29700 M⁻¹ s⁻¹ | Km [9]: 337.0 ± 44.0 µM | Vmax [9]: 0.788 µmol/min/mg | kcat [9]: 0.657 ± 0.03 s⁻¹ | kcat/Km [9]: 1950 M⁻¹ s⁻¹ | Km [10]: 16.5 ± 0.1 µM | Vmax [10]: 1.01 µmol/min/mg | kcat [10]: 0.842 ± 0.01 s⁻¹ | kcat/Km [10]: 51000 M⁻¹ s⁻¹ | Km [11]: 122.0 ± 4.5 µM | Vmax [11]: 1.22 µmol/min/mg | kcat [11]: 1.02 s⁻¹ | kcat/Km [11]: 8330 M⁻¹ s⁻¹

— article PMC10589216, “Lactate dehydrogenase D is a general dehydrogenase for D-2-hydroxyacids and is associated with D-lactic acidosis” (Nature Communications, 2023)
